Measurements published in the supplement of paper PMC9112550, “Optimization of the antimicrobial peptide Bac7 by deep mutational scanning” (BMC Biology, 2022).

System: Escherichia coli TOP10
Experiment: shrunken log2 fold change of peptide-encoding DNA abundance (4.5 h post-induction vs induction); higher = less antimicrobial activity (less host growth inhibition)
Conditions: time post-induction: 4.5 h; library: site-saturation at positions 5, 18, 19, 20
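Note: peptides expressed intracellularly from a pBAD plasmid library in pooled LB shake-flask culture, induced with 0.3% L-arabinose, DNA abundance read by NGS, three biological replicates, DESeq2 with apeglm shrinkage.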

| Sequence | shrunken log2 fold change |
| --- | --- |
| RRIRIRPPRLPRPRPRPIVNPRP | -0.67 |
| RRIRHRPPRLPRPRPRPWTNPRP | -0.101 |
| RRIRARPPRLPRPRPRPTCTPRP | 0.764 |
| RRIRYRPPRLPRPRPRPWIYPRP | -0.138 |
| RRIRCRPPRLPRPRPRPWYIPRP | -0.331 |
| RRIRARPPRLPRPRPRPMEEPRP | -0.0115 |
| RRIRWRPPRLPRPRPRPRCPPRP | 0.264 |
| RRIRHRPPRLPRPRPRPHFAPRP | -0.101 |
| RRIRYRPPRLPRPRPRPYNTPRP | -1.88 |
| RRIRWRPPRLPRPRPRPVIIPRP | -0.219 |
| RRIRCRPPRLPRPRPRPRTRPRP | 0.47 |
| RRIRMRPPRLPRPRPRPMALPRP | 0.517 |
| RRIRSRPPRLPRPRPRPQPMPRP | 0.128 |
| RRIRSRPPRLPRPRPRPFKVPRP | -0.0212 |
| RRIRRRPPRLPRPRPRPWEEPRP | 0.158 |
| RRIRPRPPRLPRPRPRPVYQPRP | -0.0913 |
| RRIRTRPPRLPRPRPRPYCCPRP | -0.364 |
| RRIRWRPPRLPRPRPRPINLPRP | -0.748 |
| RRIRGRPPRLPRPRPRPGYTPRP | -0.0605 |
| RRIRWRPPRLPRPRPRPSVCPRP | 0.104 |

| Sequence | shrunken log2 fold change |
| --- | --- |
| RRIRGRPPRLPRPRPRPLKKPRP | 0.195 |
| RRIRGRPPRLPRPRPRPYDSPRP | 0.0118 |
| RRIRCRPPRLPRPRPRPKWDPRP | 0.13 |
| RRIRLRPPRLPRPRPRPINTPRP | -0.881 |
| RRIRRRPPRLPRPRPRPTILPRP | -0.0149 |
| RRIRYRPPRLPRPRPRPVFPPRP | -0.0627 |
| RRIRQRPPRLPRPRPRPPDKPRP | -0.116 |
| RRIRDRPPRLPRPRPRPEDWPRP | 1.45 |
| RRIRGRPPRLPRPRPRPWCQPRP | 0.224 |
| RRIRARPPRLPRPRPRPSCRPRP | 0.248 |
| RRIRWRPPRLPRPRPRPFCSPRP | -0.0764 |
| RRIRYRPPRLPRPRPRPRGYPRP | -0.365 |
| RRIRHRPPRLPRPRPRPNGPPRP | -0.0992 |
| RRIRRRPPRLPRPRPRPMLMPRP | 0.122 |
| RRIRRRPPRLPRPRPRPQWYPRP | -0.258 |
| RRIRWRPPRLPRPRPRPWLGPRP | 0.00929 |
| RRIRLRPPRLPRPRPRPNISPRP | -0.373 |
| RRIRDRPPRLPRPRPRPMCFPRP | 0.0878 |
| RRIRWRPPRLPRPRPRPHWVPRP | 0.0436 |
| RRIRMRPPRLPRPRPRPENYPRP | -0.0708 |

| Sequence | shrunken log2 fold change |
| --- | --- |
| RRIRIRPPRLPRPRPRPMCTPRP | -0.0274 |
| RRIRMRPPRLPRPRPRPSQRPRP | 0.158 |
| RRIRDRPPRLPRPRPRPLSMPRP | -0.283 |
| RRIRTRPPRLPRPRPRPSHVPRP | 2.39 |
| RRIRNRPPRLPRPRPRPNRNPRP | -0.91 |
| RRIRGRPPRLPRPRPRPEVSPRP | 0.372 |
| RRIRKRPPRLPRPRPRPASFPRP | 0.559 |
| RRIRNRPPRLPRPRPRPAQNPRP | 0.861 |
| RRIRPRPPRLPRPRPRPGLQPRP | -0.0954 |
| RRIRWRPPRLPRPRPRPFWRPRP | 0.111 |
| RRIRSRPPRLPRPRPRPGDEPRP | 0.0674 |
| RRIRPRPPRLPRPRPRPEMVPRP | 0.191 |
| RRIRRRPPRLPRPRPRPMKEPRP | 0.135 |
| RRIRLRPPRLPRPRPRPPMWPRP | 0.26 |
| RRIRERPPRLPRPRPRPLNPPRP | -0.0394 |
| RRIRIRPPRLPRPRPRPLSQPRP | -0.111 |
| RRIRMRPPRLPRPRPRPQHAPRP | 0.0286 |
| RRIRARPPRLPRPRPRPGQIPRP | 0.216 |
| RRIRYRPPRLPRPRPRPQLAPRP | -0.228 |
| RRIRCRPPRLPRPRPRPAWNPRP | 0.035 |
